Results on 1 sequence are retold here after patent US20240269676A1.

The target in test [1] is gp100 antigen presented on the surface of B16F10 (gp100+) mouse melanoma cells treated with 1 µM hgp100 peptide (human) (UniProt P40967). In words: microfluidic shear detachment of primary mouse T cells from hgp100-pulsed B16F10 monolayer.
The target is the same in test [2]. In words: cell-based or functional assay.

Consider “T cell receptor of TCR-transgenic Thy1.1+ pmel-1 (Pmel) mouse T cells”, for which the percent of T cells remaining bound at 1.9 Pa in test [1] amounted to 19.4%. Also, the IFN-γ secretion (ELISA of overnight T cell-B16F10 co-culture media) in test [2] was 2120 pg/mL.
